{
  "source": "paper PMC8092709",
  "about": "(Journal of Virology, 2021)",
  "key": {"[1]": {"molecular_target": "human aminopeptidase N (hAPN), residues 66 to 967 (human) (UniProt P15144)", "experiment": "SPR"}, "[2]": {"molecular_target": "T1, HCoV-229E S glycoprotein ectodomain trimer (S-trimer) (HCoV-229E, UniProt P15423 16-1116)", "T1 sequence": "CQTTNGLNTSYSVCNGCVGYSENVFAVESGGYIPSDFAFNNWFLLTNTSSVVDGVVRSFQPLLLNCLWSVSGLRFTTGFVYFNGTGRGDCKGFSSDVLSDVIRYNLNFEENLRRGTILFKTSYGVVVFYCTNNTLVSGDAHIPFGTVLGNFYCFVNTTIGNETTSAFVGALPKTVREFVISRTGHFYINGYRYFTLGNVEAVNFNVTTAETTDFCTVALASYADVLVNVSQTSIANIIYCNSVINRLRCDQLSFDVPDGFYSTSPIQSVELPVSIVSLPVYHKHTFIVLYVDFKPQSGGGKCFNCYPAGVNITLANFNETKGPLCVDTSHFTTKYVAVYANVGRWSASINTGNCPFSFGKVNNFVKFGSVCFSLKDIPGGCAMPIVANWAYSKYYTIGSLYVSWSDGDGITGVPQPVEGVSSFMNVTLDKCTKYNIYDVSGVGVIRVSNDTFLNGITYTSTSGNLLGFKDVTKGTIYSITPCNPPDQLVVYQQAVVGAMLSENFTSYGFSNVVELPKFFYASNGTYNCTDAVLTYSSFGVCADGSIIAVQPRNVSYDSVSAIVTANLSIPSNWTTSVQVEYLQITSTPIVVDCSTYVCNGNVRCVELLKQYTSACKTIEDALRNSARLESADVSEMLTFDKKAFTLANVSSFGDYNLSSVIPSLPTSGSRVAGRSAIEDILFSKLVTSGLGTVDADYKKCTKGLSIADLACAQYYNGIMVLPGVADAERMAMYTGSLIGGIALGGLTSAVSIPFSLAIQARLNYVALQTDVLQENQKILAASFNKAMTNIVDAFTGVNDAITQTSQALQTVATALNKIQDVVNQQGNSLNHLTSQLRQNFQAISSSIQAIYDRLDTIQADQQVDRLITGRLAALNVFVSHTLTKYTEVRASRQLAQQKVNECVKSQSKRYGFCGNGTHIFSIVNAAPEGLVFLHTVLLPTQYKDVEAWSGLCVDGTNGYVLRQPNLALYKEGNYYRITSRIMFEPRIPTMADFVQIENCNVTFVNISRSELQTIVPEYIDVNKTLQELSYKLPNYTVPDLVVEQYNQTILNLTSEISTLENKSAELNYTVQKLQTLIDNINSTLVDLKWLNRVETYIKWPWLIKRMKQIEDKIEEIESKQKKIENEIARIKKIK", "experiment": "SPR"}},
  "data": [
    {"molecule": "HCoV-229E NTD-deficient S-trimer (S-trimer/ΔNTD) (from UniProt P15423 16-1116) (domain or fragment)", "values": [
      {"measurement": "Kd", "setting": "[1]", "value": 2.12, "unit": "nM"},
      {"measurement": "koff", "setting": "[1]", "value": "4.1e-05", "unit": "s⁻¹"},
      {"measurement": "kon", "setting": "[1]", "value": 19400, "unit": "M⁻¹ s⁻¹"}
    ]},
    {"molecule": "human aminopeptidase N (hAPN), residues 66 to 967 (receptor) DQSKAWNRYRLPNTLKPDSYRVTLRPYLTPNDRGLYVFKGSSTVRFTCKEATDVIIIHSKKLNYTLSQGHRVVLRGVGGSQPPDIDKTELVEPTEYLVVHLKGSLVKDSQYEMDSEFEGELADDLAGFYRSEYMEGNVRKVVATTQMQAADARKSFPCFDEPAMKAEFNITLIHPKDLTALSNMLPKGPSTPLPEDPNWNVTEFHTTPKMSTYLLAFIVSEFDYVEKQASNGVLIRIWARPSAIAAGHGDYALNVTGPILNFFAGHYDTPYPLPKSDQIGLPDFNAGAMENWGLVTYRENSLLFDPLSSSSSNKERVVTVIAHELAHQWFGNLVTIEWWNDLWLNEGFASYVEYLGADYAEPTWNLKDLMVLNDVYRVMAVDALASSHPLSTPASEINTPAQISELFDAISYSKGASVLRMLSSFLSEDVFKQGLASYLHTFAYQNTIYLNLWDHLQEAVNNRSIQLPTTVRDIMNRWTLQMGFPVITVDTSTGTLSQEHFLLDPDSNVTRPSEFNYVWIVPITSIRDGRQQQDYWLIDVRAQNDLFSTSGNEWVLLNLNVTGYYRVNYDEENWRKIQTQLQRDHSAIPVINRAQIINDAFNLASAHKVPVTLALNNTLFLIEERQYMPWEAALSSLSYFKLMFDRSEVYGPMKNYLKKQVTPLFIHFRNNTNNWREIPENLMDQYSEVNAISTACSNGVPECEEMVSGLFKQWMENPNNNPIHPNLRSTVYCNAIAQGGEEEWDFAWEQFRNATLVNEADKLRAALACSKELWILNRYLSYTLNPDLIRKQDATSTIISITNNVIGQGLVWDFVQSNWKKLFNDYGGGSFSFSNLIQAVTRRFSTEYELQQLEQFKKDNEETGFGSGTRALEQALEKTKANIKWVKENKEVVLQWFTENSK", "values": [
      {"measurement": "Kd", "setting": "[2]", "value": 3.29, "unit": "nM"},
      {"measurement": "koff", "setting": "[2]", "value": 0.000121, "unit": "s⁻¹"},
      {"measurement": "kon", "setting": "[2]", "value": 36700, "unit": "M⁻¹ s⁻¹"}
    ]}
  ]
}
